Test results reported in patent US20220227882A1 (TRUSTEES OF TUFTS COLLEGE, published 2022).

T1: V459A (Homo sapiens, UniProt P78325)
T1 construct: expressed on HEK293 cells; also called human ADAM8 point mutant V459A
T1 sequence (ADAM8, looked up): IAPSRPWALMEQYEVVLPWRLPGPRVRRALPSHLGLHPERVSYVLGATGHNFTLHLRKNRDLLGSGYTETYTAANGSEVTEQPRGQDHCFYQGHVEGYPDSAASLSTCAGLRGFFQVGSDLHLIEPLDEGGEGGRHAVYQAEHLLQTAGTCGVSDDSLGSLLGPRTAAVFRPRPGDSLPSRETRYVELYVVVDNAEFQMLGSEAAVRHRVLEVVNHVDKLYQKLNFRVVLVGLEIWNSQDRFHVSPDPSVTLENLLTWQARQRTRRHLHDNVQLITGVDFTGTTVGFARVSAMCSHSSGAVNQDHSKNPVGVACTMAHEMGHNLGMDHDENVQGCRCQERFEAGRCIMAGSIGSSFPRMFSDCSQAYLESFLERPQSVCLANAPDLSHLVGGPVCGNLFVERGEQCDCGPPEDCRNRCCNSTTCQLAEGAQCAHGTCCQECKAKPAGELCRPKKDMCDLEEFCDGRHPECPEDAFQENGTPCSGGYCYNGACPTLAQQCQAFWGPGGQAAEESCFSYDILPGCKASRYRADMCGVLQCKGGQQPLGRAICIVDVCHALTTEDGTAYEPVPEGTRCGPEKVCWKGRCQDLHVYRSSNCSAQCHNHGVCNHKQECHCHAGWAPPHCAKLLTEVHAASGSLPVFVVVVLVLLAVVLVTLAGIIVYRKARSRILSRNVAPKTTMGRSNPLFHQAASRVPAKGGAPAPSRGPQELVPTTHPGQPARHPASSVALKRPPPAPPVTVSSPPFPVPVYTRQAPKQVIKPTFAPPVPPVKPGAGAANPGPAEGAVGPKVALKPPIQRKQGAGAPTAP

T2: K458A (Homo sapiens, UniProt P78325)
T2 construct: expressed on HEK293 cells; also called human ADAM8 point mutant K458A
T2 sequence (ADAM8, looked up): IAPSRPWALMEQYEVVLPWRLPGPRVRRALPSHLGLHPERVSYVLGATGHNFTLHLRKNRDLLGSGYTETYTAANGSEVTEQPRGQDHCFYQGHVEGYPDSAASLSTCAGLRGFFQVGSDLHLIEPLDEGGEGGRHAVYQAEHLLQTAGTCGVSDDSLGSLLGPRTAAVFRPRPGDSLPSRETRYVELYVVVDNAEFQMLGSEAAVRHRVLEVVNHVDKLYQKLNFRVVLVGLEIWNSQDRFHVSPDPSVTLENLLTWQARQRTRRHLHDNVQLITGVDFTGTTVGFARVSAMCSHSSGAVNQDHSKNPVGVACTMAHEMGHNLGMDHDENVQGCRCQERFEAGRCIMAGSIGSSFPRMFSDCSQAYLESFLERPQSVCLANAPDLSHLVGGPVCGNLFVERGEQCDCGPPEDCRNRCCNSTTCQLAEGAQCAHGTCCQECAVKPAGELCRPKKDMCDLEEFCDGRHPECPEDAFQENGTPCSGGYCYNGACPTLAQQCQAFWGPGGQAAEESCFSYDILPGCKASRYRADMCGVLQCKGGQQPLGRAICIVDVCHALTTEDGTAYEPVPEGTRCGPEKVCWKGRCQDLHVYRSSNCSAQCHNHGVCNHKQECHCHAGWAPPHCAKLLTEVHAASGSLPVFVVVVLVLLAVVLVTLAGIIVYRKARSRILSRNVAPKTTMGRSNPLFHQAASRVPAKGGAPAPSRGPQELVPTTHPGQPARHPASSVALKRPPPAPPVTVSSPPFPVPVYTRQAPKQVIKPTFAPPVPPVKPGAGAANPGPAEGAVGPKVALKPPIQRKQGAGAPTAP


Tests used:
V459A = target: T1, V459A; experiment: high-throughput flow cytometry, HEK293 cells with mutant ADAM8, high stringency; range in parentheses; dotted box
Method: (§1) A variety of experimental parameters were optimized for high-throughput flow cytometry including blocking buffer, and primary and secondary antibody concentrations, to identify the optimal conditions for screening. Through these studies ADP2 and ADP13 were determined to be high affinity binding antibodies.
(§2) Thus, for these studies antigen-binding fragments (Fabs) of ADP2 and ADP13, which bind with lower affinity than the full antibody, were generated. In addition, higher binding stringency conditions were tested, such as increased pH, salinity, and temperature, and/or increased washing, to weaken binding sufficiently to allow identification of critical binding residues in flow cytometry. The final experimental flow cytometry conditions were: primary antibody incubation with ADP2 Fab (0.50 μg/ml), ADP13 Fab (5.00 μg/ml) and Control Ab (0.16 μg/ml) for 60 minutes in flow cytometry buffer containing 10% goat serum in PBS (Ca²⁺ and Mg²⁺ free). […] Samples were washed three times after primary antibody incubation and twice after secondary antibody incubation with PBS (Ca²⁺ and Mg′ free). Next, HEK293 cells expressing WT or mutated ADAM8 proteins or EV DNA were incubated with ADP2 or ADP13 Fabs or Control Ab at their optimal concentrations. Fab binding was detected using Alexa Fluor 488-conjugated secondary antibodies and mean cellular fluorescence determined using the Intellicyt iQue flow cytometry platform. […] This counter-screen strategy facilitates the exclusion of mutants that are locally misfolded or that have an expression defect. Binding of each test Fab to each mutant clone in the alanine scanning library was determined, in duplicate, by high-throughput flow cytometry.

K458A = target: T2, K458A; experiment: as above
Method: as §1, §2

Binder	Binding Reactivity (% WT) (V459A)	Binding Reactivity (% WT) (K458A)
ADP13 Fab (Fab, V domains shown) VH: EVQLQQSGPEMVKPGTSVKISCKASGYTFTDYYINWVKQSHGKSLEWIGDISPNIGGATYNPKFKGKAILTVDKSARTAYMELRSLTSEDSAVYCCTRGGSSYPYFYAMDYWGQGTSVTVSS VL: DIVMSQSPSSLAVSVGEKVTMSCKSSQSLLYSSNQKKYLAWYQQKPGQSPKLLIYWASTRESGVPDRFTGSGSGTDFTLTISSVKAEDLAVYYCQQFYSYPYTFGGGTKLEINR	27.8	
ADP2 Fab (Fab, V domains shown) VH: EVKLVESGGGLVQPGGSLSLSCAASGFSFPDYYMSWVRQPPGKALEWLGFIRDSANGYTTEYIASVKGRFTFSRDNSQSILYLQMNALRAEDSATYYCARYSRYYGMDYWGQGTSVTVSS VL: SIVMTQTPKILLVSAGDRVTITCKASQTVNYDVAWYQQKPGQSPKPVIYFASNRYTGVPDRFTGSGFGTDFTFTISTVQAEDLAVYFCQQDYSAPWTFGGGTKLEIK		28
